The values that follow come from patent US20210347873A1 (SHANGHAI PHARMAEXPLORER, published 2021).

Read-outs that look alike come from different tables or passages of the source.

Test [1] has as its target T1, biotinylated hBLyS-ECD (human, UniProt Q9Y275 134-285, biotinylated with Biotin-X-X-NHS (molar ratio 7:1); sites not stated).
T1 construct: also called biotinylated immunogen; biotinylated hBLvS-ECD
In words: ELISA on captured biotinylated hBLyS-ECD; antibody 0.107 nM.

Test [2] concerns the target T1, biotinylated hBLyS-ECD. The experiment in a line: ELISA on captured biotinylated hBLyS-ECD; antibody 13.3 nM.
The target of test [3] is T2, extracellular domain of human BLyS protein (hBLyS-ECD), His-tagged, Ala134-Leu285 (human, UniProt Q9Y275 134-285). The experiment in a line: cell-based or functional assay.
T2 sequence (Q9Y275 134-285): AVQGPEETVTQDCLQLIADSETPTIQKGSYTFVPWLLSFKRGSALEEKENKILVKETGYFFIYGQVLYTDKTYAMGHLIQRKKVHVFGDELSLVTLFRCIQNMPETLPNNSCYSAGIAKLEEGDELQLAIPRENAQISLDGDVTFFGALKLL
Test [4] deals with T1, biotinylated hBLyS-ECD. The experiment in a line: ELISA on captured biotinylated hBLyS-ECD; antibody 66.7 nM.
The target of test [5] is T1, biotinylated hBLyS-ECD. In words: ELISA on captured biotinylated hBLyS-ECD; antibody 0.00427 nM.
Test [6] concerns the target T1, biotinylated hBLyS-ECD. The experiment in a line: ELISA on captured biotinylated hBLyS-ECD; antibody 2.67 nM.
The target in test [7] is T1, biotinylated hBLyS-ECD. The experiment in a line: ELISA on captured biotinylated hBLyS-ECD; antibody 0 nM (background).
For test [8], the target named is T2, extracellular domain of human BLyS …. The experiment in a line: SPR (Biacore), antibody captured by anti-human Fc, hBLyS-ECD as analyte.
The target of test [9] is T1, biotinylated hBLyS-ECD. The experiment in a line: ELISA on captured biotinylated hBLyS-ECD; antibody 0.0213 nM.
In test [10] the target is T1, biotinylated hBLyS-ECD. In words: ELISA on captured biotinylated hBLyS-ECD; antibody 0.534 nM.
For test [11], the target named is T2, extracellular domain of human BLyS …. In words: cell-based or functional assay. This is another data set of the same source.
In test [12] the target is T3, biotinylated hBLyS-ECD (human, UniProt Q9Y275 134-285, biotinylated with Biotin-X-X-NHS (molar ratio 7:1), sites not stated).
T3 construct: The hBLyS-ECD of Embodiment 1 after biotinylation (Embodiment 2); also called biotinylated immunogen; BLyS protein; not shown: His tag of the pCPC vector
T3 sequence (Q9Y275 134-285): as above
In words: ELISA: biotinylated hBLyS-ECD captured on streptavidin, antibody titrated, HRP secondary antibody.

Test [13] addresses T3, biotinylated hBLyS-ECD. Described as above. The source holds these as a separate data set.

T1 sequence (Q9Y275 134-285): as above

B1: c111D10D6G3 (antibody, V domains shown)
VH: QVQLQQPGAELVKPGASVKMSCKASGYTFTRHWITWVKQRPGQGLEWIGDIFPGSGSINYNEKFKSEATLTVEKSSSTAYMQLSSLTSEDSAVYYCARGDVDVWGTGTTVTVSS
VL: DIQMTQSPSSLSASLGERVSLTCRASQEIRGYLSWLQQKPNGTIKRLIYAASTLDSGVPKRFSATRSGSDFSLTISSLESEDFADYYCLQYASYPFTFGSGTKLEIK
As to B1, the OD450 nm with biotinylated hBLyS-ECD [1] stood at 2.12 OD450 nm; with biotinylated hBLyS-ECD [2], 3.39 OD450 nm; with biotinylated hBLyS-ECD [4] it was 3.43 OD450 nm; with biotinylated hBLyS-ECD [5] it was 0.222 OD450 nm; with biotinylated hBLyS-ECD [6], 3.4 OD450 nm; in the test with biotinylated hBLyS-ECD [7] it was 0.105 OD450 nm. In addition, the OD450 nm came out at 0.747 OD450 nm with biotinylated hBLyS-ECD [9] and 3.16 OD450 nm with biotinylated hBLyS-ECD [10]. In [3], the “Proportion of B lymphocytes in splenocytes (%), in vivo in mice” value was 33.2%. The affinity in test [8], expressed as Kd, was 0.297 nM. Besides, the koff in test [8] was found to be 2.98e-05 s⁻¹. In test [8], the kon is 100000 M⁻¹ s⁻¹.

B2: c67A2E1D10 (antibody, V domains shown)
VH: EVQLQQSGAELVKPGASVKLSCTASGFNIKNYYMHWVKQRTEEGLEWIGRIDPEDGETKYAPKFQAKATITADTSSNTAYLQLSSLTSEDTAVYFCARKGYYGNYGAWFAYWGQGTLVTVSA
VL: DIQMTQSPASLSVSVGETVTITCRASEDLYSNLAWYQQKQGKSPQLLVYAATFLADGVPSRFSGSGSGTQYSLKINSLQSEDFGNYYCQHFWGTPPTFGGGTKLEIK
For the molecule B2, in [11], the “OD450 nm (as headed), mouse B lymphocyte proliferation; antibody 0 nM” value came out at 4060; the “OD450 nm (as headed), mouse B lymphocyte proliferation; antibody 0.000256 nM” value was 4720; the “OD450 nm (as headed), mouse B lymphocyte proliferation; antibody 0.00128 nM” value was 4810; the “OD450 nm (as headed), mouse B lymphocyte proliferation; antibody 0.0064 nM” value came to 5170. In test [11], the “OD450 nm (as headed), mouse B lymphocyte proliferation; antibody 0.032 nM” value was found to be 4340; the “OD450 nm (as headed), mouse B lymphocyte proliferation; antibody 0.16 nM” value was determined as 3900; the “OD450 nm (as headed), mouse B lymphocyte proliferation; antibody 0.8 nM” value amounted to 3970; the “OD450 nm (as headed), mouse B lymphocyte proliferation; antibody 4 nM” value is 3500. Moreover, in test [11], the “OD450 nm (as headed), mouse B lymphocyte proliferation; antibody 20 nM” value came to 2610 and the “OD450 nm (as headed), mouse B lymphocyte proliferation; antibody 100 nM” value was found to be 1100. Also, the OD450 nm in the test with biotinylated hBLyS-ECD [1] was 1.58 OD450 nm. For the same molecule, in the test with biotinylated hBLyS-ECD [2], the OD450 nm turned out to be 3.24 OD450 nm. In the test with biotinylated hBLyS-ECD [4], the OD450 nm came to 3.19 OD450 nm. The OD450 nm with biotinylated hBLyS-ECD [5] worked out at 0.143 OD450 nm. The OD450 nm with biotinylated hBLyS-ECD [6] stood at 2.94 OD450 nm. In addition, in the test with biotinylated hBLyS-ECD [7], the OD450 nm turned out to be 0.0848 OD450 nm. In [8], this molecule displayed a Kd of 4.99 nM, a koff of 0.000159 s⁻¹ and a kon of 32000 M⁻¹ s⁻¹. The OD450 nm in the test with biotinylated hBLyS-ECD [9] came to 0.523 OD450 nm. In addition, in the test with biotinylated hBLyS-ECD [10], the OD450 nm was 2.73 OD450 nm.

B3: h8E7D9C7F5-1 (antibody, human IgG1, V domains shown)
VH: EVQLVQSGAEVKKPGASVKVSCKASGYTFTSYGISWVRQAPGQGLEWMGEIYPRSGNTYYNEKFKGRVTMTTDTSTSTAYMELRSLRSDDTAVYYCARSGPITTLVATDYGMDYWGQGTTVTVSS
VL: DIVMTQSPDSLAVSLGERATINCRASKSVSTSSYSYMHWYQQKPGQPPKLLIKFASNLESGVPDRFSGSGSGTDFTLTISSLQAEDVAVYYCQHSREFPYTFGGGTKVEIK
notes: Humanized (VH.1 / Vk.1); also called humanized BLyS antibody
As to B3, the “EC50 (read off the curve)” value in the test with biotinylated hBLyS-ECD [12] was ~0.08 nM.

B4: c8E7D9C7F5 (antibody, human IgG1, V domains shown)
VH: QVQLQQSGVELARPGASVKLSCKASGYTFTSYGISWVKQRTGQALEWIGEIYPRSGNTYYNEKFKGKATLTADKSSSTAYMELRSLTSEDSAVYFCARSGPITTLVATDYGMDYWGQGTSVTVSS
VL: DIVLTQSPASLAVSLGQRATISCRASKSVSTSSYSYMHWYQQKPGQPPKLLIKFASNLESGVPARFSGSGSGTDFTLNIHPVEEEDAATYYCQHSREFPYTFGGGTKLEIK
notes: also called BLyS chimeric antibody
Take B4: the “EC50 (read off the curve)” value in the test with biotinylated hBLyS-ECD [13] and with biotinylated hBLyS-ECD [12] was ~0.1 nM throughout.

B5: h97A3C2H4-9 (antibody, human IgG1, V domains shown)
VH: EVQLVESGGGLVQPGGSLRLSCAASGFTFSTYTMSWVRQAPGKRLEWVAYISYGGGSTSYPDTVKGRFTISRDNAKNSLYLQMNSLRAEDTAVYYCTRHVTVVENSMDYWGQGTTVTVSS
VL: DILLTQSPDFQSVTPKEKVTITCRASQSIGTSIHWYQQKTDQSPKLLIKYVSESFSGTPSRFSGSGSGTDFTLTINSLEAEDAATYYCQQTHSWPWTFGGGTKVEIK
notes: Humanized (VH.1b / Vk.1d); also called humanized BLyS antibody
On to B5, for which, in the test with biotinylated hBLyS-ECD [12], the “EC50 (read off the curve)” value fell in the range of 0.1 to 0.2 nM.

B6: c93C6F10D3 (antibody, V domains shown)
VH: EVQLVESGGGLVTPGGSLKLSCVASGFAFSTYGMSWVRQTPERRLEWVAYISGGGGSIYYPDSVKGRFTISRDNAKNILYLQMSSLKSEDTAMYHCTRHPDLLLRYDYALDHWGQGTSVTVSS
VL: DIQMTQSPASLSASVGETVTITCRASENIHIYLAWYQQKQGKSPQLLVYNGKTLADGVPSRFSGSGSGTQYSLKINTLQPEDFGNYYCQHFWNSTWTFGGGTKLEIK
As for B6, in [11], the “OD450 nm (as headed), mouse B lymphocyte proliferation; antibody 0 nM” value turned out to be 4320; the “OD450 nm (as headed), mouse B lymphocyte proliferation; antibody 0.000256 nM” value was 4600; the “OD450 nm (as headed), mouse B lymphocyte proliferation; antibody 0.00128 nM” value worked out at 4520; the “OD450 nm (as headed), mouse B lymphocyte proliferation; antibody 0.0064 nM” value was 4920. In test [11], the “OD450 nm (as headed), mouse B lymphocyte proliferation; antibody 0.032 nM” value is 4520; the “OD450 nm (as headed), mouse B lymphocyte proliferation; antibody 0.16 nM” value is 4300; the “OD450 nm (as headed), mouse B lymphocyte proliferation; antibody 0.8 nM” value was 1090; the “OD450 nm (as headed), mouse B lymphocyte proliferation; antibody 4 nM” value was 527. Moreover, in test [11], the “OD450 nm (as headed), mouse B lymphocyte proliferation; antibody 20 nM” value was 434 and the “OD450 nm (as headed), mouse B lymphocyte proliferation; antibody 100 nM” value was 389. Also, in test [3], the “Proportion of B lymphocytes in splenocytes (%), in vivo in mice” value is 27.1%. In test [8], this molecule came in with a Kd of 0.386 nM, a koff of 0.000212 s⁻¹ and a kon of 549000 M⁻¹ s⁻¹.
